Source: patent US20190336582A1 (published 2019)

Biological target: T1, IL-10 receptor (IL-10R1 and IL-10R2 receptor chains) on mouse cells (mouse, UniProt Q61727 17-575; Q61190 20-349)
T1 sequence (looked up) 1: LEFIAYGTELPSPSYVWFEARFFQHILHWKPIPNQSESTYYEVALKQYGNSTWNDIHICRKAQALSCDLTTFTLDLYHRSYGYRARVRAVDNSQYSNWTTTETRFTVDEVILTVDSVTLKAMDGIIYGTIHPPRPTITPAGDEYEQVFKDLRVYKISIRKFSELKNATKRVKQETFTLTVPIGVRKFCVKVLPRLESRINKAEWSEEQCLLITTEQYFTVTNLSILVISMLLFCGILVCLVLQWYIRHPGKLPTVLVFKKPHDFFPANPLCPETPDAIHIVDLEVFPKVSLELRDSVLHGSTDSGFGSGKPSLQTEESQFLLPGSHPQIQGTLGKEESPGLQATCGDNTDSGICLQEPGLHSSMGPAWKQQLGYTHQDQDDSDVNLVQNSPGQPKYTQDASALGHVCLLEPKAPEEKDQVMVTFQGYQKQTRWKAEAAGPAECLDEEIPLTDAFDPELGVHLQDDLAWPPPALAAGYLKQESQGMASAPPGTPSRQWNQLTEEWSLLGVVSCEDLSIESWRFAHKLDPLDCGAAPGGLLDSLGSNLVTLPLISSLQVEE
T1 sequence (looked up) 2: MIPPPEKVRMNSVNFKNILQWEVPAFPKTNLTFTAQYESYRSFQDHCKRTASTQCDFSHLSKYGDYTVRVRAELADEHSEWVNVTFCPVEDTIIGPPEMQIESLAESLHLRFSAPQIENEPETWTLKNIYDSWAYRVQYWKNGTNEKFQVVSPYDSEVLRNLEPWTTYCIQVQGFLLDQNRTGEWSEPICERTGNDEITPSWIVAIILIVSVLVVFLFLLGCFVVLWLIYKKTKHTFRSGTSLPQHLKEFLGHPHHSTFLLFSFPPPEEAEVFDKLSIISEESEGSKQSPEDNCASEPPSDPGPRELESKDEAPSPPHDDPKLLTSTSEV
Assay: cell-based or functional assay

B1: Human wild-type IL-10 (wtIL-10) (ligand)
chain: SPGQGTQSENSCTHFPGNLPNMLRDLRDAFSRVKTFFQMKDQLDNLLLKESLLEDFKGYLGCQALSEMIQFYLEEVMPQAENQDPDIKAHVNSLGENLKTLRLRLRRCHRFLPCENKSKAVEQVKNAFNKLQEKGIYKAMSEFDIFINYIEAYMTMKIRN
  EC50, proliferation of mouse mast cell line MC/9: 5 pM
  IC50, inhibition of TNFα production in LPS-stimulated C57BL/6 mouse PBMCs (PBMC + LPS): 0.45 pM
